Test results published in patent US7501552 (GENPHARM INTERNATIONAL, dated 2009).

Legend:
Test in all cases: flow cytometry on peripheral blood lymphocytes
[1] = target: T1, chimpanzee CD4 on lymphocytes (chimpanzee, UniProt P16004 26-458)
T1 construct: whole, on cells; also called chimpanzee CD4 cells
Description: (§1) It is further desirable for some purposes that the animal be a non-human primate that expresses CD4 comprising a cross-reactive epitope with human CD4 such that it is recognized by the monoclonal antibody. […] Peripheral blood lymphocytes were isolated from whole blood of chimpanzee, rhesus, and cynomolgus monkeys. […] The stained cells were then analyzed by flow cytometry to determine if each of the human monoclonal antibodies bound to endogenous CD4 on the surface of lymphocytes from each of these three non-human primates.

[2] = target: T2, rhesus monkey CD4 on lymphocytes (rhesus monkey, UniProt P16003 26-458)
T2 construct: whole, on cells; also called rhesus CD4 cells
T2 sequence (P16003 26-458): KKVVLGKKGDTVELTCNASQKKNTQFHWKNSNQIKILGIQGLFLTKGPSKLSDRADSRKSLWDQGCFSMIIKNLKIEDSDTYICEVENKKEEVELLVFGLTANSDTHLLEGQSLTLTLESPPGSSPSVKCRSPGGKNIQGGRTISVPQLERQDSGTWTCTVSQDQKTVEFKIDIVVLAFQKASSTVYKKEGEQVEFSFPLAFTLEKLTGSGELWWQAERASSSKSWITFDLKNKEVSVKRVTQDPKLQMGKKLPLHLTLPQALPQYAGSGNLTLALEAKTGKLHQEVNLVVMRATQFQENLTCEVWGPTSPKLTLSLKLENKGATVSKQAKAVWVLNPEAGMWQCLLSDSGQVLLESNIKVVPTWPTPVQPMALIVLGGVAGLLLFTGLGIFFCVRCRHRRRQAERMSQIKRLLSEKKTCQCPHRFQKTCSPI
Description: as §1

[3] = target: T3, cynomolgus monkey CD4 on lymphocytes (cynomolgus monkey, UniProt P79185 26-458)
T3 construct: whole, on cells; also called cynomolgus CD4 cells
T3 sequence (P79185 26-458): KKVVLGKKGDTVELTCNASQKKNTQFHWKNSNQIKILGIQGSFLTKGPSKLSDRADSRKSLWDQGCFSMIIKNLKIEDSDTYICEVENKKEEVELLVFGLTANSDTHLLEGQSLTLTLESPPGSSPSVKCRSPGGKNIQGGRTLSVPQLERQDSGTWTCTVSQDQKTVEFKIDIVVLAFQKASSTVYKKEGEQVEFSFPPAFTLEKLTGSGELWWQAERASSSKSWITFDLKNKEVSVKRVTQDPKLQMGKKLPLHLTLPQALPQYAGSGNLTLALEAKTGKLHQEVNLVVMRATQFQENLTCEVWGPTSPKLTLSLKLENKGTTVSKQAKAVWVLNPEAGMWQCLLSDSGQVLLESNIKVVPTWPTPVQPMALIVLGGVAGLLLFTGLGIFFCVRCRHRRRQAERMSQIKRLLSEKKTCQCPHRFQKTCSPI
Description: as §1

Measured: binding result

T1 sequence (P16004 26-458): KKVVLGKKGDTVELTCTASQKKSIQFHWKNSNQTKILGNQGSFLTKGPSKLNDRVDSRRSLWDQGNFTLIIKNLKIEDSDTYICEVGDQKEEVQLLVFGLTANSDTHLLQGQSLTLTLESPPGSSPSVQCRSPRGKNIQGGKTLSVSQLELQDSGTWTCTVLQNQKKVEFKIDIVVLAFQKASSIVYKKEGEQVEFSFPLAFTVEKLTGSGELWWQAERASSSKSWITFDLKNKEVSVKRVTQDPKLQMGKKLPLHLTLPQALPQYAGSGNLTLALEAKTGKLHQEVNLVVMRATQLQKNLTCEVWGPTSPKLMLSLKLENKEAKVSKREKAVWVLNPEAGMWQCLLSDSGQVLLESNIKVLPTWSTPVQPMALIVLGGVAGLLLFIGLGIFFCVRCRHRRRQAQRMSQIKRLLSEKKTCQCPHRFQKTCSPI

B1: 4D1 (antibody, V domains shown)
VH: EVQLVQSGAEVKKPGESLKISCKGSGYSFTGYWIGWVRQMPGKGLEWMGIIYPGDSDTTYSPSFQGQVTISADKSISTAYLQWSSLKASDTAMYYCARDQLGLFDYWGQGTLVTVSS
VL: DIQMTQSPSSLSASVGDRVTITCRASQGISSWLAWYQQKPEKAPKSLIYSASSLQSGVPSRFSGSGSGTDFTLTISSLQPEDFATYYCQQYDSYPYTFGQGTKLEIK
notes: human IgG1 kappa from hybridoma; h.c; VH5-51, DHQ52, JH4; VkL15, Jk2; also called 4D1.4
binds: all assays above
